Data: paper PMC3865722 (2014)

Key:
Assay in all cases: competitive inhibition of Tra2β
Tra2β(ΔN) 114-288 = molecular target: T1, Tra2β(ΔN) 114-288 (Homo sapiens, UniProt P62995)
T1 chain: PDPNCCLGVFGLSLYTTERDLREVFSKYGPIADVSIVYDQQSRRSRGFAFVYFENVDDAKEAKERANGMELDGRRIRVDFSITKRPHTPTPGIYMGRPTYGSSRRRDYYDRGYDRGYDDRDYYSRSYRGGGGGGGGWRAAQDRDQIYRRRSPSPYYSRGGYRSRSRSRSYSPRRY

[1] = molecular target: T2, Tra2β(ΔN/RRM) C-terminal RS domain (Homo sapiens, UniProt P62995)
T2 chain: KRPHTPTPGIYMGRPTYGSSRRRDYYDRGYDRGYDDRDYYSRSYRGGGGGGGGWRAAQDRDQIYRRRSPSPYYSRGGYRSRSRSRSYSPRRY

[2] = molecular target: T3, Tra2β(ΔN/RS2) RRM and N-terminal half of C-terminal RS domain (Homo sapiens, UniProt P62995)
T3 chain: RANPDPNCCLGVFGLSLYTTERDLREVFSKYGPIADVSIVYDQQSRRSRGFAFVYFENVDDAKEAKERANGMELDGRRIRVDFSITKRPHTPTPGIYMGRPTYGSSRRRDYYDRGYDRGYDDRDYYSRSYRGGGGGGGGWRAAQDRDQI

Ki (Tra2β(ΔN) 114-288): 11 nM | Ki [1]: 45 nM | Ki [2]: 180 nM
B1: SRPK1 (protein)
chain: MERKVLALQARKKRTKAKKDKAQRKSETQHRGSAPHSESDLPEQEEEILGSDDDEQEDPNDYCKGGYHLVKIGDLFNGRYHVIRKLGWGHFSTVWLSWDIQGKKFVAMKVVKSAEHYTETALDEIRLLKSVRNSDPNDPNREMVVQLLDDFKISGVNGTHICMVFEVLGHHLLKWIIKSNYQGLPLPCVKKIIQQVLQGLDYLHTKCRIIHTDIKPENILLSVNEQYIRRLAAEATEWQRSGAPPPSGSAVSTAPQPKPADKMSKNKKKKLKKKQKRQAELLEKRMQEIEEMEKESGPGQKRPNKQEESESPVERPLKENPPNKMTQEKLEESSTIGQDQTLMERDTEGGAAEINCNGVIEVINYTQNSNNETLRHKEDLHNANDCDVQNLNQESSFLSSQNGDSSTSQETDSCTPITSEVSDTMVCQSSSTVGQSFSEQHISQLQESIRAEIPCEDEQEQEHNGPLDNKGKSTAGNFLVNPLEPKNAEKLKVKIADLGNACWVHKHFTEDIQTRQYRSLEVLIGSGYNTPADIWSTACMAFELATGDYLFEPHSGEEYTRDEDHIALIIELLGKVPRKLIVAGKYSKEFFTKKGDLKHITKLKPWGLFEVLVEKYEWSQEEAAGFTDFLLPMLELIPEKRATAAECLRHPWLNS
